{"source": "paper PMC7599640", "origin": "cited, not measured here", "molecular_target": "alpha-bungarotoxin (Bungarus multicinctus) (UniProt P60615)", "sequence (P60615 22-95)": "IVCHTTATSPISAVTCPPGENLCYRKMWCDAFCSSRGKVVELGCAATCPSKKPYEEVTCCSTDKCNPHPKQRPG", "data": [{"substance": "Nicotinic acetylcholine receptor (from UniProt P02710)", "values": [{"measurement": "Kd", "value": 0.4, "unit": "nM"}]}]}
